Source: the DeepSol protein solubility set

assay: soluble on expression in E. coli; label from the status in PepcDB or PDB records

Sequence	soluble on expression in E. coli
MIENHLYSLVTVVKYKLLPCLLAIFLTGCDRTEVTLSFTPEMASFSNEFDFDPLRGPVKDFTQTLMDEQGEVTKRVSGTLSEEGCFDSLELLDLENNTVVALVLDANYYRDAETLEKRVRLQGKCQLAELPSAGVSWETDDNGFVIKASSKQMQMEYRYDDQGYPLGKTTKSNDKTLSVSATPSTDPIKKLDYTAVTLLNNQRVGNVKQSCEYDSHANPVDCQLIIVDEGVKPAVERVYTIKNTIDYY	not soluble
MIFEVPIDHFPASSQQVSKTREHKPLRLSTVSLHSKEVNAAVAPLSPSVRRSQFNFSSEVTKSALPKVRASIPPLKRALTSPALPVQHLNLNLVRKGSNPSSQTSRNNSVTDLLKSELFKMPSRLLSTAVSLHQLA	not soluble
MIFMNMVNRERELQALKKRLSSNDLELIIIYGRRRIGKTFLIINAVNGYDFIYYLATEKNNLRKFKELTESKYEDIKYVKEDWEAIFHYLRDKIIIIDEFPYMIKEDESILSTFQKIVDETLKGSKTKLILLGSSISMMEDAISYKSPLYGRRTASIELKELKFKDLKGFNFSLIDAIHVYGFAGGVPFYLTKAKTPFLKWINAELKEVDSFIKDEIDFMLRYEFSEIGTYKEILHAISSGKNTLGEIKDFVRISGDVSSYLNKLEKIGIIGKEFPYKMKKGARYYIKDNFTLFWFTFIYPNLSLIEEGIYEIKEDEYNVYLGRIFEKIAREYVEDVYKVKVERLWFKDVEIDIYGDGIAGECKWSEGINGEKVLYELKRKVEDLGLDVKKYIIFAKSFSKTNEEAEFIDLKKLEQWYRTLEHHHHHH	soluble
MIHVILLAAGYSSRFGSNKLLHIVDGTPMYRHALETAEQFRQRYCCEPVRLIFVTAYDDIGKQLREKDGFCLFGAAKAGNTAGRDLVVMNPNSGLGISHSIALGVKAAGADRFQEDDSLMFMVCDQPWLTPGDLLNLAACFKRSGKSIGCMAYGEQTGNPVLFSAVYREELLGLRGDTGGKAIVRRHPKEVCLCPVSNPRALEDMDELQ	not soluble
MIILEKEQKEPNRLIKEKSPYLLQHAYNPVDWYPWGEEAFEKARKENKPVFLSIGYSTCHWCHMMAHESFEDEEVAGLMNEAFVSIKVDREERPDIDNIYMTVCQIILGRGGWPLNIIMTPGKKPFFAGTYIPKNTRFNQIGMLELVPRIKEIWEQQHEEVLDSAEKI	not soluble
MIIPMNNKHPLPTPLVSIIIPVYNVEKYLYRCVKSILSQDYYDYEIILVDDGSTDGSGMICDELTEQHGHISVIHKPNGGQGSARNAGLNHAKGKYIWFIDSDDYISPHSLSVIMSQITQGDFDALFFPYIKSNGNILIGEAVGKYHAGVYRGQQLLLEGLVNMSMCTIVSLRSRWIDNRIFFREDIHFEDFEINPRVLKFLERAIFLDSNIIPYIYYTRLGSTMNQLDPQKRMRQTEDFLRIEKSWKEWFNLDSPEPNSYDMLMLRTGTNMLHRNLLNFVRNSNFSISTKLKLYAQYRKKGVFSWFYNGYRRDPYVGCTSVRVFWNTIGRSYILFSLFSIVEEIWKKIRK	not soluble
MIISDVLYGEFEVDQVVEELISSKSMQRLKGIHQNGASYLMNEKWNVTRFDHSVGVMLLVKKLGGSVKEQIASLLHDVSHTAFSHVIDYVFDNEDESYHEEIFSSVVKNSEIPAILAKHGYNYEDILLDDSKWTLLERSAPELCADRVDYTLRDMYTYGYISLEEVHRFLEDIIAVEGKMVVQSVEMAEWFTETYYKEVIDFFMKPMNIYGNDMLAKTLKLSLHKKVIHADDFLLEDEELISKLQQCNDPEVEALLSKVHPNVKVKEDRNDYDLHQKNKVRLIDPPLLREGKIVQSSVVSENIRQISDIAYEKAVRGMYVKVISN	not soluble
MIISTDLQLLISPMQWDQVASEIAQQLSAVGYNVTDIRAEVIDLTCEPDNMLVNQWQQEHGTIPTSEQLHRVVITGEFDGELRKATECVVRQLPEGSYWYGTSLVGEIEPSVTAACAWQADV	not soluble
MIITIPIKNQKDIGTPSDSVVVLGYFDGIHKGHQELFRVANKAARKDLLPIVVMTFNESPKIALEPYHPDLFLHILNPAERERKLKREGVEELYLLDFSSQFASLTAQEFFATYIKAMNAKIIVAGFDYTFGSDKKTAEDLKNYFDGEVIIVPPVEDEKGKISSTRIRQAILDGNVKEAGKLLGAPLPSRGMVVHGNARGRTIGYPTANLVLLDRTYMPADGVYVVDVEIQRQKYRAMASVGKNVTFDGEEARFEVNIFDFNQDIYGETVMVYWLDRIRDMTKFDSVDQLVDQLKADEEVTRNWS	soluble
MIKIKAIERKAGFGKTSKTLWYPAIHLHSDVKFEEFIELVSDETTVSSADIKAVFDRAAKVLIRLLQDGKSIDCGDMGTYRPSITAKAGSGVDSADKVTVELVDKAKVIYTPRMKVKTALKGVRMERAERVLDVPYASSIKPNENNSGGSSSSDNNGHAGL	not soluble
MIKIVTDNFLYEKEKVLALRYMYDSAKKPGITIITVTNKQKYIKNIMDNFRRCLYPKKEFIIILNDTKLQTSLYKNYFSKTKNLKLFKVDSSYSLGECLNLAISKSNYNYIAKMDDDDYYGSHYILDSMNAFNYTDASIIGKATHFIYFEDRTLLNLWCQGNENTYATSVAGATFVMKKSIFNKVKFNSLNNGEDIDLLSQCNNLGIKIYSCSKFNYVYNRHASPDNHSWKISNDLLVKRSIKLCITKSYKRIVHILEHHHHHH	not soluble
MIKIYNRKTKAYDVEQVAGLKYINWSYASPIGKSFLELFIKKKMFSKLYGNFCDSSLSKKKIKAFIDEFNIDMSLCNKNIDEFENFNDFFARTLTPEARPIDYSENILISPGDGRLSAFENIDLDKVVQIKGYTYSLKELIDDPKVAEEFEGGTCLILRLCPTDYHRFHFVDSGTCSESKKISGFYYSVNPIALNNVSELFCKNKREWSIFNSDNFGEILHVEVGATCVGTILQTYSPEKRVKKGEEKGYFKFGGSTTILFFKKDTIKIDSDIVEQTKLGFETKVNMGETIGHKLEHHHHHH	soluble
MIKNNIKHTWYFGHPQQLVWDYLTKPELLSQWLMESDFQPVAGHTFMFNTKPKVKVGFDGLIYCQVLKVQPDHELEHHHHHH	soluble
MIKPYDFVPFLPYKPYDDVKAERGDGKIPIRVKTLTPVHIPSGEYTVSGDNSMIYKEFVKVNGVPVIPGTSFKGCIRSIAESISYSCLYIFDKQKKELIPEFKLEAQEKDHEKNKEQRNENGKKCIVSDMFGMPGQKSKIVFNDLRGVPNKYKLEIKGIPTSFRPNPDAEYYLENGKYKGYKFYKHGINGIQPKGNMLCEFAAENSLFEGEIIYKNLTEEQIRLLCFSLGLSGDINPKIGYGKNYFYGSIEVTSDAKWVEKAKQYKNIEKDDIKNNINLIISILNYKNAVTSVD	soluble
MIKRYTCPNGVRIVLENNPTVRSVAIGVWIGTGSRHETPEINGISHFLEHMFFKGTSTKSAREIAESFDRIGGQVNAFTSKEYTCYYAKVLDEHANYALDVLADMFFHSTFDENELKKEKNVVYEEIKMYEDAPDDIVHDLLSKATYGNHSLGYPILGTEETLASFNGDSLRQYMHDYYTPDRVVISVAGNISDSFIKDVEKWFGSYEAKGKATGLEKPEFHTEKLTRKKETEQAHLCLGFKGLEVGHERIYDLIVLNNVLGGSMSSRLFQDVREDKGLAYSVYSYHSSYEDSGMLTIYGGTGANQLQQLSETIQETLATLKRDGITSKELENSKEQMKGSLMLSLESTNSKMSRNGKNELLLGKHKTLDEIINELNAVNLERVNGLARQLFTEDYALALISPSGNMPS	not soluble
MIKVGICDTTFARYDMGGAAIDELKKHTAGIKIIRRTVPGIKDLPVACKKLIEEEGCEMVMALGMPGPEEKDKVCAHEASTGLIQAQLMTNTHILEVFVHEDEEDDPEELKVLADNRAREHAQNLIMMLFKPDRLTREAGMGLREGKPDAGPL	not soluble
MILDSQLAQQIVDRTMAIIGYNINVMNQAGVIIGSGEKNRIGQVHDGAILALKHGDSVELTAESCVALKGVKPGINMVLRNQQQVVGIVGITGEPKDIRDFANLVKMSAEMIIEQAALVEQLQWDRRHREEFISAWIHNTLSAAELDAWAARLSIDLSKPRVAVVIAFRQPKSGQSLDQIRQVVELLEHPERDNLVAVVSMQEIVVLKPCRTPEHWTSEYESLRIDKLMARLKAYDITGYDIALGQLFINPNAIHLSYQSAKQVLRIGQVRQPEKQKHLYEELRLPVLLLPLNEGWQGEQWRRVMQELQTQDKSGQLVKTLKGLFAANGNLNLCAQQLFIHRNTLRYRLEKITEITGIETNSLLGLAELYIAYQLTSYD	soluble
